One assay has as its target T1, IGF-1R (Homo sapiens, UniProt P08069).
T1 construct: human IGF-1R(1-903)-Fc (denoted hIGF-1R-Fc, generated by Biogen Idec)
Description: Ligand blocking assay (RIA): 125I-IGF-1 / 125I-IGF-2 binding to immobilized IGF-1R. The note with it: murine monoclonal antibodies. From the text: Ligand blocking assay (RIA). […] Insulin (Arg-Insulin, Cat #01-207) was purchased from Upstate Cell Signaling Solutions (Lake Placid, N.Y. (now part of Millipore, Concord, Mass. (USA)). ^125I-rhIGF-1 (Cat # IM172), ^125I-rhIGF-2 (Cat# IM238) and ^125I-rhInsulin (Cat# IM166) were purchased from Amersham Biosciences (Piscataway, N.J.). AffiPure goat anti-human IgG, Fcγ fragment specific antibodies (Cat #109-005-098, Jackson ImmunoResearch, West Grove, Pa.) was used for IGF-1R-Fc capture. As detection antibody, goat anti-mouse IgG HRP (Cat #1030-05, Southern Biotech Birmingham, Ala.) was used.
Human insulin receptor α-subunit specific antibodies, Clone 83-14, (Cat #AHR0221, Biosource International, Inc., Camarillo, Calif.) and the 47-9 (Cat #E55502M, Biodesign International, Saco, M E) were used as positive controls blocking of insulin-insulin receptor binding experiments. Recombinant IGF-1R-Fc fusion protein was produced at Biogen Idec (Cambridge, Mass.).
As isotype matched mouse negative control antibodies, 2B8 (murine α-CD20.1gG,) and 2B8 mkm.G2a (murine α-CD20 MAb, IgG2a, Biogen Idec, Lot #NB3304-87, San Diego, Calif.) were used. The negative control for Fabs was R001-1B provided by Christilyn Graff (Biogen Idec, Cambridge, Mass.). PBS used in buffers was from BioWhittaker (Cat. # 17-513F, Walkersville, Md.).
Recombinant human IGF-1R (Histidine tagged version) or IGF-1R-Fc was coated onto IMMULON2 HB (high binding) Removawell strips (Dynex Technologies, Inc., cat. #6302) diluted with carbonate coating buffer pH 9.5 to a concentration of 250 ng/well. After overnight incubation at 4° C., the wells were washed three times with washing buffer (0.05% Tween 20/PBS) then blocked with blocking buffer (3% BSA/PBS) for one hour at room temperature. The blocking buffer was removed and the wells washed three more times. Antibody, Fab, or ligand preparations were diluted to desired concentration with dilution buffer (1% BSA/0.05% Tween 20/PBS) and plated at 50 μl per well in duplicate. After 45 minutes at room temperature, 100,000 cpm of either [125I] rhIGF-1 or [125I] rhIGF-2 in 50 μl dilution buffer was added per well. This was incubated at room temperature for one more hour. The wells were washed again three more times and left liquid free after the last wash. The air-dried wells were counted with the Isodata Gamma Counter.
Alternatively, Fabs were evaluated by a modified capture assay, where the IGF-1R-Fc was captured using anti-human IgG immobilized to a plate. Immobilization was carried out by overnight incubation of goat anti-human IgG, Fcγ fragment specific antibody (200 ng/well) in carbonate coating buffer. The wells were washed, blocked and 250 ng of IGF-1R-Fc was added per well.
The ligand blocking ability of the anti-IGF-1R antibody was determined by a solid phase RIA capture method as described in Example 3. […] After 1 hour of incubation at room temperature, the wells were washed and counted for bound radioactivity by a Gamma Counter. An isotype matched negative antibody control, IDEC-151 (human G4), was used. Percent (%) inhibition was calculated as =[1−(Ave.CPM with Ab)/(Ave.CPM with buffer)]×100%.

Another assay relates to MCF-7. Description: Ki67 inhibition in MCF-7 cells. The settings on record: breast cancer cell. The class given is cell-based, human.
The next assay has as its target T2, IGF-1R phosphorylation (Homo sapiens, UniProt P08069).
T2 construct: wild type IGF-1R expressed on MCF-7 tumor cells; endogenous in cells; host or cells: MCF-7
Kind of assay: Inhibition of IGF-1 and IGF-2 mediated IGF-1R phosphorylation in MCF-7 cells (ELISA). The class given is cell-based. The settings on record: murine monoclonal antibodies. On the procedure:
Cell lines: IGF1R expressing human breast carcinoma cell line MCF-7 (NCI) were maintained at 37° C. and 5% CO2 in MEM eagle (ATCC) containing 10% FBS, 1× non-essential amino acids, 2 mM L-glutamine, 1 mM sodium pyruvate and 1000 U/ml penicillin and streptomycin. Cells were sub-cultured twice weekly for maintenance and assay, and used with a maximum of 12 passages.
MCF-7 cells were plated in 2 ml growth media at 2×10^5 to 4.0×10^5 cells/well in Ploy-D-Lysine coated 12 well plates (BD Biosciences, #35-6470) and cultured at 37° C., 5% CO2. At 48 hours, media removed and cells serum starved overnight at 37° C., 5% CO2 Serum free media was removed and control or test antibodies at indicated concentration were added in 350 ul of fresh serum free media and incubated for 1 hour at room temperature, or alternately at 37° C. Fabs were tested at 200 nM, 20 nM and 2 nM concentration and the mAbs were tested at 67, 6.7 and 0.67 nM. The commercial anti-IGF-1R control antibody used was αIR3 (EMD biosciences, Oncogene Research products, #D27249). […] Ligand was incubated at […] for 37° C. antibody experiments. Cells were lysed in 1× cell lysis buffer (Cell Signal Technologies, #9803) with 1 mM PMSF for 1 hour at room temperature.
Cell lysates were added to ELISA plates pre-coated with IGF-1Rp antibody (Clone 1-2, Biosource International, #AHR0361) and incubated for 2 hours. Following which plates were washed and the plate bound phosphorylated receptor was detected with the biotin labeled anti-phosphotyrosine antibody 4G10 (Catalog #16-103, Upstate Cell Signaling Solutions (Lake Placid, N.Y. (now part of Millipore, Concord, Mass. (USA)) and streptavidin-HRP (BD Pharmingen, #554066). Assay is developed by addition of TMB substrate (Kierkegaard & Perry, #50-76-00) and color stopped by addition of […] (LabChem, Cat#LC25830-1). Optical density is measured at 450 nm using a Molecular Devices plate reader and percent inhibition over the ligand control is calculated for each antibody-ligand sample.
The effect of human anti-IGF-1R antibodies on IGF-1R signaling was evaluated using MCF-7 cells (human breast adenocarcinoma cells).
A general note: An ELISA detects its analyte on a solid surface through an enzyme-linked reagent.

A further assay relates to NCI-H23. Kind of assay: IGF driven tumor cell growth, CELL TITER-GLO, H-23. The class given is cell-based, human. The settings on record: lung cancer cells. As for the experimental part:
(§1) NCI-H23, Calu-6, Colo-205, Panc-1, BxPC-3 (ATCC) tumor lines were purchased from ATCC. Cell lines were grown in complete growth medium containing RPMI-1640 (ATCC), 10% fetal bovine serum (Irvine Scientific Inc.) and 50 μg/ml of Gentamycin (Gibco, Invitrogen). Trypsin-EDTA solution (Sigma) was used for removal of adherent cells from culture vessels. Phosphate buffered saline, pH 7.2, was from MediaTech Inc The 96-well clear bottom plates for luminescent assay was purchased from Wallac Inc.
(§2) Cells grown to 80% monolayers were, trypsinized, washed, resuspended and plated into 96-well plates in 200 μl of 2% growth medium at 8×10^3 cells/well for NCI-H23 and Colo-205 cells; and 5×10^3 cells/well for Calu-6, Panc-1 and BxPC-3 cells. After 24 hours, the culture medium was replaced with 100 μl of serum free medium (SFM), and 50 μl of serially diluted antibodies at 4× concentration was added. […] All treatments were done in triplicates. Cell growth was measured using the CELL TITER-GLO™ Luminescent Cell Viability Assay (Promega, Madison, Wis.). The 1:1 mixture of reagent and SFM was added at 200 μl/well. Luminescence was detected on Wallac (Boston, Mass.) plate reader.
(§3) The ability of the selected murine antibodies to inhibit IGF/IGF-1R dependent in vitro growth of several human tumor lines (Lung, H-23, Calu-6; Pancreas, BxPc-3, Panc-1, MiaPaCa and Colon Colo205) was measured by a proliferation assay described in Example 13.
A commercially available anti-IGF-1R antibody (IR3) was used as a positive control. The mouse IgG (anti-IDectin, IgG1) and human gamma 4 version of IDEC-152 antibody of irrelevant specificity were used as isotype matched controls for the experiments. […]
On the technique in general: In ATP-based viability assays light output follows the ATP content of the culture.

In the next assay the test system is Calu-6. Kind of assay: IGF driven tumor cell growth, CELL TITER-GLO, Calu-6. The class given is cell-based, human. The note with it: lung cancer cells. On the procedure:
as §1, §2, §3

For a further assay, the system named is Panc-1. Description: IGF driven tumor cell growth, CELL TITER-GLO, Panc-1. The class given is cell-based, human. The settings on record: pancreatic cancer cell. As for the experimental part: as §1, §2, §3
Another assay concerns Colo-205. Kind of assay: IGF driven tumor cell growth, CELL TITER-GLO, Colo-205. The class given is cell-based, human. The settings on record: colon cancer cell. As for the experimental part:
as §1, §2, §3

The target of assay [1] is T3, recombinant human IGF-1R-10His (Homo sapiens, UniProt P08069).
T3 construct: denoted hIGF-1R(1-902)-His10, was purchased from R&D systems (Cat. No. 305-GR-050); purchased R&D Systems 305-GR-050
Description: SPR, antibodies and Fabs on IGF-1R-His captured via PENTA-His antibody. The class given is binding. The note with it: Fab fragment; 25° C. As for the experimental part:
Method: The binding activity of M13-C06, M14-C03, and […] to soluble IGF-1R was measured using surface plasmon resonance. Biotinylated PENTA-His Antibody (Qiagen, Inc.) was immobilized onto a Streptavidin coated Sensor Chip. Soluble/Dimeric IGF-1R-His ectodomain (R&D systems, Inc.) was captured on the surface via the PENTA-His antibody. Secondary injections of M13-C06, M14-C03, or M14-G11 Fabs (0.5 nM-100nM) were performed. The surfaces were regenerated with three short injections of acetate, pH 4.0.
M13-C06, M14-C03, and M14-G11 Fab antibodies were prepared by digestion with immobilized papain (Pierce Cat. No. 20341 (Pierce Biotechnology, Inc., Rockford, Ill.)). The papain resin was washed with 20 mM sodium phosphate pH 7.0; 10 mM EDTA; 20 mM Cysteine. Antibodies were mixed with the papain resin in 500 mM EDTA, 100 mM Cysteine pH 7.0 and digested for three hours in a 37° C. water bath followed by mixing on an inverting shaker overnight at room temperature. Completion of each digestion was determined by analytical size exclusion chromatography (SEC). The resin was removed from the digested protein with a sintered glass funnel filter and washed with 20 mM acetate pH 5.0. The flowthrough was collected and diluted 10-fold with 20 mM acetate pH 5.0. Fab fragments were purified by S-SEPHAROSE™ cation exchange chromatography using a linear salt gradient. […]

B1: P1G10.2B8: murine anti-human IGF-1R monoclonal antibody from hybridoma; VH SEQ ID NO:58, VL SEQ ID NO:113 (antibody, V domains shown)
VH: QIQLVQSGPDLKKPGETVKISCKASGYTFTNHGMNWVKQAPGKDLKWMGWINTNTGEPTYADDFKGRFAFSLETSASTAYLQINNLKNEDTATYFCASPLYYRNGRYFDVWGAGTTVTVSS
VL: DIQMTQTTSSLSASLGDRVTISCRASQDISNYLNWYQQKPDGSVKLLIYYTSRLHSGVPSRFSGSGSGTDYSLTISNLEQEDIATYFCQQGKTLPWTFGGGTKLEIK
modifications: Antibody variable heavy chain sequence; Antibody variable light chain sequence
As to B1, the “IGF Blocking IGF-1” value with IGF-1R is on record as “+++ (>40%@0.1 μg/ml)”. In the assay on MCF-7, the “Proliferation of Tumor Cells MCF-7* (Ki67 Inhibit.)” value is recorded as “+++ (>50%@0.1 μg/ml)”. In the assay with IGF-1R phosphorylation, the “Inhibition of IGF-1R.pTyr IGF-1” value is “+++ (>30%@0.1 μg/ml)” and the “Inhibition of IGF-1R.pTyr IGF-2” value is on record as “+++ (>30%@0.1 μg/ml)”. Besides, the “Proliferation of Tumor Cells H-23” value with NCI-H23 is recorded as “+++ (>30%@0.1 μg/ml)”. In the assay with Calu-6, the “Proliferation of Tumor Cells Calu-6” value was “++ (>30%@1 μg/ml)”. Also, the “Proliferation of Tumor Cells Panc-1” value in the assay with Panc-1 is on record as “+ (>30%@10 μg/ml)”. Also, the “Proliferation of Tumor Cells Colo-205” value with Colo-205 is on record as “++ (>30%@1 μg/ml)”.

B2: M14-C03_Fab (antibody, V domains shown)
VH: EVQLLESGGGLVQPGGSLRLSCAASGFTFSKYMMSWVRQAPGKGLEWVSYISPSGGLTWYADSVKGRFTISRDNSKNTLYLQMNSLRAEDTAVYYCARDGARGYGMDVWGQGTTVTVSS
VL: DIQMTQSPATLSLSPGERATLSCRASQSVSSYLAWYQQKPGQAPRLLIYDASNRATGIPARFSGSGSGTDFTLTISSLEPEDFAVYYCQQRSNWPPEVTFGPGTKVDIK
On to B2, for which, in assay [1], the “ka” value is 190000 M⁻¹ s⁻¹ and the “kd” value amounted to 0.00094 s⁻¹.

The values above are taken from patent US20090291088A1, “THERAPEUTIC COMBINATIONS OF ANTI-IGF-1R ANTIBODIES AND OTHER COMPOUNDS” (Biogen Idec MA Inc., priority 2008, published 2009).
